From patent US20250361296A1

Experiments:
Experiment in all cases: flow cytometry, CHO-S cells expressing the target
[1] = target: Macaca fascicularis (crab-eating macaque) SIGLEC15 on CHO-S-fasSIGLEC15 cells (Macaca fascicularis (crab-eating macaque))
[2] = target: dog SIGLEC15 on CHO-S-dSIGLEC15 cells (dog)
[3] = target: human SIGLEC15 on CHO-S-hSIGLEC15 cells (human) (UniProt Q6ZMC9)
[4] = target: mouse SIGLEC15 on CHO-S-mSIGLEC15 cells (mouse)
Chain of mouse SIGLEC15 on CHO-S-mSIGLEC15 cells (mouse) (chain, as listed by the source limits assumed): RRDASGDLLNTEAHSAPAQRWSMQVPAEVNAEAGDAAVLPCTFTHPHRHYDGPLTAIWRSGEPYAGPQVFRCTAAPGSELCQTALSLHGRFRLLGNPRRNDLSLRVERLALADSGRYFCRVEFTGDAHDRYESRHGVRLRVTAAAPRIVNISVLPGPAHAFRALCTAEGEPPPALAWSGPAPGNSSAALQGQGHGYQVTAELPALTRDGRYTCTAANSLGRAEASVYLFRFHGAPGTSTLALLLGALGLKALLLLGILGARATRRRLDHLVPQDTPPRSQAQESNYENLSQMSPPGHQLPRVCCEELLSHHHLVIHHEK

Chain of human SIGLEC15 on CHO-S-hSIGLEC15 cells (human) (Q6ZMC9 20-328 limits assumed): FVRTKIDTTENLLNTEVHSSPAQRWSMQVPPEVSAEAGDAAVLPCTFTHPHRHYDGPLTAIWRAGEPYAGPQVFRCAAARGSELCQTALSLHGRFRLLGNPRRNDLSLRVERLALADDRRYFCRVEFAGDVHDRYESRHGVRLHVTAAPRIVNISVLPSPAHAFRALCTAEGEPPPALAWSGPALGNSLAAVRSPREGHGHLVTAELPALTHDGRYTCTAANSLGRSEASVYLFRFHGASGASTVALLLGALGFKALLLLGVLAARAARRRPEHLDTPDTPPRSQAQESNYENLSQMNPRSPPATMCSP
Chain of dog SIGLEC15 on CHO-S-dSIGLEC15 cells (dog) (chain, as listed by the source limits assumed): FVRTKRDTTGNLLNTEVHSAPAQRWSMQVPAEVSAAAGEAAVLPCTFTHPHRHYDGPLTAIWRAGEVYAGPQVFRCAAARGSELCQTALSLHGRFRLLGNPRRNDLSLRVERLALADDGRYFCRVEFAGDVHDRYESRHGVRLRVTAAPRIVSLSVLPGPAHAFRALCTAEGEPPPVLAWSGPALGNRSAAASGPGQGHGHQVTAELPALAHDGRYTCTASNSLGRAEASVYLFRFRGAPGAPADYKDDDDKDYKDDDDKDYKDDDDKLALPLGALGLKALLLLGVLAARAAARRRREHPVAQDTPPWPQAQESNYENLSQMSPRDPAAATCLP

| Percentage of Positive Cells [1] | Percentage of Positive Cells [2] | Percentage of Positive Cells [3] | Percentage of Positive Cells [4] | Substance |
| --- | --- | --- | --- | --- |
| 0% | 0.7% | 0% | 0.3% | NC + secondary antibody |
| 0.2% | 0.6% | 0.1% | 0.1% | NC |
